Test results as given in PMC4652282, “An Efficient Site-Specific Method for Irreversible Covalent Labeling of Proteins with a Fluorophore”.
Where a chain is given by its changes, count along the chain named.

How the values were obtained:
Details in all cases: protein: recombinant; tags: C-terminal SS-his6-GG-ald6 (LCTPSR); chain copies: 2; blunt, one internal G/T mismatch
[1] = biological target: T1, EcMutS-his6/ald6(D835R,R840E), unlabeled (Escherichia coli, UniProt P23909 1-853, D835R;R840E); test: SPR; kon 9.48e5 M-1 s-1; koff 33.02e-4 s-1; koff with ATP 0.48 s-1; SPR at 25 C, buffer not shown; EMSA: 25 mM Hepes (GS Buffer, rest not shown), on ice 15 min
T1 sequence: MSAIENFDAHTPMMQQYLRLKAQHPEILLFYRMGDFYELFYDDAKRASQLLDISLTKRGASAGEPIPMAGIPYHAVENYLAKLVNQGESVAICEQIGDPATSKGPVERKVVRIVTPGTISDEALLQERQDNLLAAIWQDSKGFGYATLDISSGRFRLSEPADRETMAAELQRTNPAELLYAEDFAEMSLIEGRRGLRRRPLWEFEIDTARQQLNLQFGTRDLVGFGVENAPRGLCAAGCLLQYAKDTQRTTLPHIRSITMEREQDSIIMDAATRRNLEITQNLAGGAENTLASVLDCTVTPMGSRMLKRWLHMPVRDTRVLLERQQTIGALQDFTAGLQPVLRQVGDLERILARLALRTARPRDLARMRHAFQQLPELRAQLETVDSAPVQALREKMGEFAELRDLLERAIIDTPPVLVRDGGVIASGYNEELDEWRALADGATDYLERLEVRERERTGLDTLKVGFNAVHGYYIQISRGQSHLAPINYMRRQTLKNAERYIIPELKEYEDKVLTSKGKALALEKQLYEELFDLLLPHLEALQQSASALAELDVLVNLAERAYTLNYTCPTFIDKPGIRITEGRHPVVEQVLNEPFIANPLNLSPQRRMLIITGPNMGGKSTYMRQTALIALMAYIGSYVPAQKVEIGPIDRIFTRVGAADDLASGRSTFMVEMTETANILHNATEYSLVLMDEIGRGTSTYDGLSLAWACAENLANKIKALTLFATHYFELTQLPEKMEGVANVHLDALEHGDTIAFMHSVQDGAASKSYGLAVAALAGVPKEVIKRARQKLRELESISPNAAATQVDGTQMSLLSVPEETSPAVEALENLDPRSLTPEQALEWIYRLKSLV

[2] = biological target: T2, EcMutS-his6/ald6(D835R,R840E), AF555-labeled (Escherichia coli, UniProt P23909 1-853, D835R;R840E); test: SPR; kon 4.37e5 M-1 s-1; koff 24.48e-4 s-1; koff with ATP 0.45 s-1; SPR at 25 C, buffer not shown; EMSA: 25 mM Hepes (GS Buffer, rest not shown), on ice 15 min
T2 sequence: T1 sequence

[3] = biological target: T3, EcMutS-his6/ald6, AF647-labeled (Escherichia coli, UniProt P23909 1-853); test: SPR; kon 3.44e5 M-1 s-1; koff 8.93e-4 s-1; koff with ATP 0.26 s-1; SPR at 25 C, buffer not shown; EMSA: 25 mM Hepes (GS Buffer, rest not shown), on ice 15 min
T3 sequence: T1 sequence with R835D, E840R

[4] = biological target: T4, EcMutS-his6/ald6, unlabeled (Escherichia coli, UniProt P23909 1-853); test: SPR; kon 5.29e5 M-1 s-1; koff 6.10e-4 s-1; koff with ATP 0.53 s-1; SPR at 25 C, buffer not shown; EMSA: 25 mM Hepes (GS Buffer, rest not shown), on ice 15 min
T4 sequence: T1 sequence with R835D, E840R

B1: G/T mismatch DNA (SPR) (dsDNA)
DNA 1: AACTATAGGGCGAATTGGGTACCGCTGAATTGCACCGAGCTTGATCCTCGATGATCCTAAGCTAAGCTTCAGCTCCAGCTTT
DNA 2: AAAGCTGGAGCTGAAGCTTAGCTTAGGATCATCGAGGATCGAGCTCGGTGCAATTCAGCGGTACCCAATTCGCCCTATAGTT
With B1 the Kd [1] was 3.85 ± 1.78 nM, the Kd [2] was 5.75 ± 1.51 nM and the Kd [3] was 2.63 ± 0.49 nM. For the same binder, the Kd [4] was 1.25 ± 0.53 nM.
